In patent US20130227716A1 (University of Washington, published 2013):

Tests used:
[1] = biological target: COI1/ASK1 complex (full-length Arabidopsis thaliana COI1 co-expressed with ASK1) (Arabidopsis thaliana) (UniProt Q39255); test: cell-based or functional assay
[2] = biological target: T1, COI1/ASK1 complex (full-length Arabidopsis thaliana COI1 co-expressed with ASK1) (Arabidopsis thaliana, UniProt Q39255 1-160); test: saturation radioligand binding (3H-coronatine) with COI1/ASK1 and the synthetic peptide
T1 construct: mature; Purified from Hi5 insect cells; co-purifies with Ins(1,2,4,5,6)P5 cofactor; also called COI/ASK1; untreated COI1
T1 sequence 1: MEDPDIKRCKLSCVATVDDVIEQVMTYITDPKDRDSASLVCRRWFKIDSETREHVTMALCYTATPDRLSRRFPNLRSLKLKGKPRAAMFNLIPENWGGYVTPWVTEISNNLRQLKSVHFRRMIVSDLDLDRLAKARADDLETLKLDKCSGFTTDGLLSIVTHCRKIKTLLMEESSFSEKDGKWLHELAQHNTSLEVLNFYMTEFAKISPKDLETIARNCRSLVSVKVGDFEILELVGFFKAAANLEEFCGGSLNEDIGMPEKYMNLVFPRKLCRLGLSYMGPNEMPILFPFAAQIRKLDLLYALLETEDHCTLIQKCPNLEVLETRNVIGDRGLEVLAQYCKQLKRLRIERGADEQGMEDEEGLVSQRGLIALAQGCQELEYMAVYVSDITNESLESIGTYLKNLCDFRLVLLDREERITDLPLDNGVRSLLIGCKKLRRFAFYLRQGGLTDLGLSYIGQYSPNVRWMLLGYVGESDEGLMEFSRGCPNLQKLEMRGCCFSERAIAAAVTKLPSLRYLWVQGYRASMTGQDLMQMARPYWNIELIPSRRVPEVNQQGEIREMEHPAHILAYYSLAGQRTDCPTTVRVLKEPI
T1 sequence 2: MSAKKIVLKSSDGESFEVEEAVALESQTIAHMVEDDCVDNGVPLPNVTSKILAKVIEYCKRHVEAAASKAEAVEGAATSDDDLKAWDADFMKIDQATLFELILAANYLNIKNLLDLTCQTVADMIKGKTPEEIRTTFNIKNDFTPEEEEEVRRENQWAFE

[3] = biological target: T1, COI1/ASK1 complex (full-length …); test: 3H-coronatine radioligand binding with COI1/ASK1 and synthetic peptide
[4] = biological target: T2, Arabidopsis thaliana COI1 (Arabidopsis thaliana, UniProt O04197 1-592); test: crystal structure
T2 construct: also called wild-type COI1
T2 sequence: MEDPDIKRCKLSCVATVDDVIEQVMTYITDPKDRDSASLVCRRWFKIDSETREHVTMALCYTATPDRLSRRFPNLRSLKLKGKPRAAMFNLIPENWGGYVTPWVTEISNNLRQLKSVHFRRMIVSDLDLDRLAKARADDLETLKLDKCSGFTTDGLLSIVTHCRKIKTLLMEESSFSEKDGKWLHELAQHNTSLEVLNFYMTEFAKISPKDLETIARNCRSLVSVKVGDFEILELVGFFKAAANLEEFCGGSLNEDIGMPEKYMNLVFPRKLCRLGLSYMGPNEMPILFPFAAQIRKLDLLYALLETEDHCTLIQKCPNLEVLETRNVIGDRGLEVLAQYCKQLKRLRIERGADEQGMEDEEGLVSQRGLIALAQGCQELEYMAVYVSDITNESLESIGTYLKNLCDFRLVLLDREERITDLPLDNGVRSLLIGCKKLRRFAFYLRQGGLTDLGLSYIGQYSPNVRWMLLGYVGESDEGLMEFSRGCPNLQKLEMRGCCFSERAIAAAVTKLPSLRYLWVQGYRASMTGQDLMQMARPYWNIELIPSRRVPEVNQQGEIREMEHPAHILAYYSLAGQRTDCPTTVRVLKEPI

[5] = biological target: T1, COI1/ASK1 complex (full-length …); test: cell-based or functional assay

full-length JAZ6 (from UniProt Q9C9E3 1-269)
KD of 3H-coronatine saturation binding to COI1/ASK1 in the presence of JAZ6 [1]: 48 nM | KD of 3H-coronatine saturation binding to the COI1/JAZ6 complex [1]: 68 nM

B1: JAZ1 + 5 extension (peptide)
peptide: ELPIARRASLHRFLEKRKDRV
notes: also called JAZ1 +5 extension peptide; JAZ1 degron +5 peptide
Kd [2]: 108 nM

YQKASMKRSLHSFLQKRSLRI [JAZ7 + 5 extension]
binding result [3]: no binding

B2: ASK1 (other, Arabidopsis thaliana, UniProt Q39255 1-160, looked up)
chain: MSAKKIVLKSSDGESFEVEEAVALESQTIAHMVEDDCVDNGVPLPNVTSKILAKVIEYCKRHVEAAASKAEAVEGAATSDDDLKAWDADFMKIDQATLFELILAANYLNIKNLLDLTCQTVADMIKGKTPEEIRTTFNIKNDFTPEEEEEVRRENQWAFE
notes: mature
binding result [4]: binds

AAAAARRASLHRFLEKRKDRV [JAZ1 + polyA extension]
binding result [3]: no binding

B3: full-length JAZ1 (other)
chain: MSSSMECSEFVGSRRFTGKKPSFSQTCSRLSQYLKENGSFGDLSLGMACKPDVNGTLGNSRQPTTTMSLFPCEASNMDSMVQDVKPTNLFPRQPSFSSSSSSLPKEDVLKMTQTTRSVKPESQTAPLTIFYAGQVIVFNDFSAEKAKEVINLASKGTANSLAKNQTDIRSNIATIANQVPHPRKTTTQEPIQSSPTPLTELPIARRASLHRFLEKRKDRVTSKAPYQLCDPAKASSNPQTTGNMSWLGLAAEI
KD of 3H-coronatine saturation binding to COI1/ASK1 in the presence of JAZ1 [5]: 68 nM | KD of 3H-coronatine saturation binding to the COI1/JAZ1 complex [5]: 48 nM

LPIARRASLHRFLEKRKDRV [JAZ1 + 4 extension]
binding result [3]: binds

QQHQVVERIARRASLHRFFAKRKDRV [JAZ6 + 10 extension]
binding result [3]: no binding

B4: JAZ1 + 6 extension + PY motif (peptide)
peptide: ELPIARRASLHRFLEKRKDRVTSKAPY
notes: also called JAZ1-extension +5+PY; JAZ1 +5 extension with the six C-terminal residues added back on
binding result [3]: binds

VERIARRASLHRFLEKRKDRV [JAZ1 + 5 extension from JAZ6]
binding result [3]: no binding

VERIARRASLHRFFAKRKDRV [JAZ6 + 5 extension]
binding result [3]: no binding
